Test results from publication PMC11718114 (2025).
Each block holds one binder with its values, some of them ahead of it.

What was measured:
[1] = target: PI3Kα: p110α(2-1068) W1057A/I1058A/F1059A + p85(322-600) (human, UniProt P42336 2-1068; P27986 322-600, W1057A | I1058A | F1059A); experiment: ITC
PI3Kγ(144-1102)-His6 = PI3Kγ(144-1102)-His6 (human, UniProt P48736 144-1102); experiment: ITC
PI3Kγ(144-1102)-His6, sequence (P48736 144-1102): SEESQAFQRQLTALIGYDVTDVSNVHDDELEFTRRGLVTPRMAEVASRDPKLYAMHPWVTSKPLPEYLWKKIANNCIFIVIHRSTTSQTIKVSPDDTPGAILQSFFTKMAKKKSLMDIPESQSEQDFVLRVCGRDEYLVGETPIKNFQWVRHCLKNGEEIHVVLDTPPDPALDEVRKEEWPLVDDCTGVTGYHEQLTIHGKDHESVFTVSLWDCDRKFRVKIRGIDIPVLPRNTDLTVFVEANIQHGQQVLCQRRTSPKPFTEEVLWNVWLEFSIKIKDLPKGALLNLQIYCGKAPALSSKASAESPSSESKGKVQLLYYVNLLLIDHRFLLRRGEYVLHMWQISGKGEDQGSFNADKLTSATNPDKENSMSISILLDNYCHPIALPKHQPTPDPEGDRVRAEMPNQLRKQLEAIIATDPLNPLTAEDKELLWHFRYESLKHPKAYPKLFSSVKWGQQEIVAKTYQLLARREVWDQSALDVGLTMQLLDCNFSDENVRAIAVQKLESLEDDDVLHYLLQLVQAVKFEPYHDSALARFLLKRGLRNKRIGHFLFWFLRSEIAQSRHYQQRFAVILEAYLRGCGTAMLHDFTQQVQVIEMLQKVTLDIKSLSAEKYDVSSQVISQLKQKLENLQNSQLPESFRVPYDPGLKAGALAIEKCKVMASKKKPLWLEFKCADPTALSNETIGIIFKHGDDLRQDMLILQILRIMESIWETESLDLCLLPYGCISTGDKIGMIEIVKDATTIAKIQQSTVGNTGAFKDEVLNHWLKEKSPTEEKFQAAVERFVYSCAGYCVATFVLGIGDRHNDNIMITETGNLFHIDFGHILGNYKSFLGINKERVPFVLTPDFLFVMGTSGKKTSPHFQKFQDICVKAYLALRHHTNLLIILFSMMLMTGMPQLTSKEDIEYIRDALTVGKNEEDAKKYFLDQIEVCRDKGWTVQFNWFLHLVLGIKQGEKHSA

Kd [1]: 27.6 µM
B1: RRAS(22-192) (domain or fragment)
chain: GDPPPSETHKLVVVGGGGVGKSALTIQFIQSYFVSDYDPTIEDSYTKICSVDGIPARLDILDTAGQEEFGAMREQYMRAGHGFLLVFAINDRQSFNEVGKLFTQILRVKDRDDFPVVLVGNKADLESQRQVPRSEASAFGASHHVAYFEASAKLRLNVDEAFEQLVRAVRK

Kd (PI3Kγ(144-1102)-His6): 5.5 µM
B2: RRAS2 (wild type) (domain or fragment)
chain: MAAAGWRDGSGQEKYRLVVVGGGGVGKSALTIQFIQSYFVTDYDPTIEDSYTKQCVIDDRAARLDILDTAGQEEFGAMREQYMRTGEGFLLVFSVTDRGSFEEIYKFQRQILRVKDRDEFPMILIGNKADLDHQRQVTQEEGQQLARQLKVTYMEASAKIRMNVDQAFHELVRVIRKFQ
